The target of assay [1] is T1, SARS-CoV-2 receptor-binding domain (RBD) (SARS-CoV-2, UniProt P0DTC2). The assay is described as follows: SPR. Background: Surface plasmon resonance follows binding to a sensor surface in real time, without labels.
Assay [2] deals with T1, SARS-CoV-2 receptor-binding domain (RBD). The assay is described as follows: SPR. The source holds these as a separate data set.

B1: Nb-C4-240 nanobody (VHH)
VHH: EVQLQESGGGLVQPGGSLRLSCAASGFTFSSYAMGWYRQAPGKEREWVCAISGSGGSTYYADSVKGRFTCSRDNSKNTLYLQMNSLKPEDTAVYYCARVVSYYDQTGFVYWQSYDYWGQGTQVTVSS
B1: in assay [1], the dissociation constant (Kd) amounted to 1.06 µM. Also, the dissociation rate constant (koff) in assay [2] was 0.969 s⁻¹.

B2: Nb-C2-136 nanobody (VHH)
VHH: EVQLQESGGGLVQPGGSLRLSCAASGFTFSSYAMGWYRQAPGKEREWVCAISGSGGSTYYADSVKGRFTCSRDNSKNTLYLQMNSLKPEDTAVYYCARYGGPYDPTDSTYAFDYWGQGTQVTVSS
Take B2: binding in assay [1] was characterised by a dissociation constant (Kd) of 0.382 µM. This molecule also showed an off-rate (koff) in assay [2] of 0.032 s⁻¹.

B3: Nb-C4-225 nanobody (VHH)
VHH: EVQLQESGGGLVQPGGSLRLSCAASGFTFSSYAMGWYRQAPGKEREWVCAISGSGGSTYYADSVKGRFTCSRDNSKNTLYLQMNSLKPEDTAVYYCARGSFYYTYGGSVGFDAFDYWGQGTQVTVSS
B3 yielded a Kd in assay [1] of 0.143 µM. The koff in assay [2] came to 0.0057 s⁻¹.

B4: Nb-C4-255 nanobody (VHH)
VHH: EVQLQESGGGLVQPGGSLRLSCAASGFTFSSYAMGWYRQAPGKEREWVCAISGSGGSTYYADSVKGRFTCSRDNSKNTLYLQMNSLKPEDTAVYYCARQAWYYSPYGGPEFEAFDYWGQGTQVTVSS
In assay [1], B4 came in with a Kd of 2.95 µM. The molecule further came in with a koff in assay [2] of 0.295 s⁻¹.

B5: LM18 nanobody (VHH)
VHH: EVQLQESGGGLVQPGGSLRLSCAASGFTFSSYALGWYRQAPGKEREWVCAISGSGGSTYYADSVKGRFTCSRDNSKNTLYLQMNSLKPEDTAVYYCARVYQFYGARDYGYPYDFDYWGQGTQVTVSS
The molecule B5 had a Kd in assay [1] of 0.391 µM. The koff in assay [2] came out at 0.0944 s⁻¹.

For orientation: Kd means a measure of binding affinity in units of concentration. What is called koff is a measure of how fast the partners let go of each other. The low end stands for a long-lived complex, the high end for a short-lived complex.

These data come from publication PMC10268213 (2023).
